Reference: the supplement of paper PMC11246515
± gives the standard deviation of the averaged measurements.

Assay: total protein half-life in vivo (active degradation + dilution); higher = more stable protein
[1] = E. coli NCM3722 delta-clpP, growth: N-lim chemostat, doubling time 6 h
[2] = E. coli NCM3722 delta-hslV, growth: N-lim chemostat, doubling time 6 h
[3] = E. coli NCM3722 delta-smpB, growth: N-lim chemostat, doubling time 6 h
[4] = wild type E. coli NCM3722, growth: C-lim chemostat, doubling time 3 h
[5] = wild type E. coli NCM3722, growth: C-lim chemostat, doubling time 6 h
[6] = wild type E. coli NCM3722, growth: C-lim chemostat, doubling time 12 h
[7] = wild type E. coli NCM3722, growth: N-lim chemostat, doubling time 6 h
[8] = wild type E. coli NCM3722, growth: N-lim chemostat, doubling time 12 h
[9] = wild type E. coli NCM3722, growth: P-lim chemostat, doubling time 6 h
[10] = wild type E. coli NCM3722, growth: P-lim chemostat, doubling time 12 h
[11] = E. coli NCM3722 delta-clpP delta-lon delta-hslV, growth: N-lim chemostat, doubling time 6 h
[12] = E. coli NCM3722 delta-lon, growth: N-lim chemostat, doubling time 6 h

MRYSKLTMLIPCALLLSACTTVTPAYKDNGTRSGPCVEGGPDNVAQQFYDYRILHRSNDITALRPYLSDKLATLLSDASRDNNHRELLTNDPFSSRTTLPDSAHVASASTIPNRDARNIPLRVDLKQGDQGWQDEVLMIQEGQCWVIDDVRYLGGSVHATAGTLRQSIENR
total protein half-life in vivo [1]: 5.61 ± 1.2 h | total protein half-life in vivo [2]: 6.1159 ± 0.0003 h | total protein half-life in vivo [3]: 6.06 ± 0.54 h | total protein half-life in vivo [4]: 2.89 ± 0.099 h | total protein half-life in vivo [5]: 6.3 ± 0.064 h | total protein half-life in vivo [6]: 12.9 ± 1 h | total protein half-life in vivo [7]: 6.03 ± 0.21 h | total protein half-life in vivo [8]: 12.6 ± 1.1 h | total protein half-life in vivo [9]: 6.22 ± 0.44 h | total protein half-life in vivo [10]: 13.7 ± 0.35 h

MKFDKPAGENPIDQLKVVGRPHDRIDGPLKTTGTARYAYEWHEEAPNAAYGYIVGSAIAKGRLTALDTDAAQKAPGVLAVITASNAGALGKGDKNTARLLGGPTIEHYHQAIALVVAETFEQARAAASLVQAHYRRNKGAYSLADEKQAVNQPPEDTPDKNVGDFDGAFTSAAVKIDATYTTPDQSHMAMEPHASMAVWDGNKLTLWTSNQMIDWCRTDLAKTLKVPVENVRIISPYIGGGFGGKLFLRSDALLAALAARAVKRPVKVMLPRPSIPNNTTHRPATLQHLRIGADQSGKITAISHESWSGNLPGGTPETAVQQSELLYAGANRHTGLRLATLDLPEGNAMRAPGEAPGLMALEIAIDELAEKAGIDPVEFRILNDTQVDPADPTRCFSRRQLIECLRTGADKFGWKQRNATPGQVRDGEWLVGHGVAAGFRNNLLEKSGARVHLEQNGTVTVETDMTDIGTGSYTILAQTAAEMLGVPLEQVAVHLGDSSFPVSAGSGGQWGANTSTSGVYAACMKLREMIASAVGFDPEQSQFADGKITNGTRSATLHEATAGGRLTAEESIEFGTLSKEYQQSTFAGHFVEVGVHSATGEVRVRRMLAVCAAGRILNPKTARSQVIGAMTMGMGAALMEELAVDDRLGYFVNHDMAGYEVPVHADIPKQEVIFLDDTDPISSPMKAKGVGELGLCGVSAAIANAVYNATGIRVRDYPITLDKLLDKLPDVV
total protein half-life in vivo [11]: 6.02 ± 1.7 h | total protein half-life in vivo [1]: 1.06 h | total protein half-life in vivo [12]: 4.29 ± 0.36 h | total protein half-life in vivo [5]: 6.1 h

MDKELPWLADNAQLELKYKKGKTPLSHRRWPGEPVSVITGSLIQTLGDELLQKAEKKKNIVWRYENFSLEWQSAITQAINLIGEHKPSIPARTMAALACIAQNDSQQLLDEIVQQEGLEYATEVVIARQFIARCYESDPLVVTLQYQDEDYGYGYRSETYNEFDLRLRKHLSLAEESCWQRCADKLIAALPGINKVRRPFIALILPEKPEIANELVGLECPRTHFHSKEWLKVVANDPTAVRKLEHYWSQDIFSDREASYMSHENHFGYAACAALLREQGLAAIPRLAMYAHKEDCGSLLVQINHPQVIRTLLLVADKNKPSLQRVAKYHKNFPHATLAALAELLALTEPPARPGYPIIEDKKLPAQQKARDEYWRTLLQTLMASQPQLAAEVMPWLSTQPQSVLKSYLSAPPKPVIDGTDNSNLPEILVSPPWRSKKKMTAPRLDLAPLELTPQVYWQPGEQERLAATEPARYFSTESLAQRMEQKSGRVVLQELGFGDDVWLFLNYILPGKLDAARNSLFVQWHYYQGRVEEILNGWNSPEAQLAEQALRSGHIEALINIWENDNYSHYRPEKSVWNLYLLAQLPREMALTFWLRINEKKHLFAGEDYFLSILGLDALPGLLLAFSHRPKETFPLILNFGATELALPVAHVWRRFAAQRDLARQWILQWPEHTASALIPLVFTKPSDNSEAALLALRLLYEQGHGELLQTVANRWQRTDVWSALEQLLKQGPMDIYPARIPKAPDFWHPQMWSRPRLITNNQTVTNDALEIIGEMLRFTQGGRFYSGLEQLKTFCQPQTLAAFAWDLFTAWQQAGAPAKDNWAFLALSLFGDESTARDLTTQILAWPQEGKSARAVSGLNILTLMNNDMALIQLHHISQRAKSRPLRDNAAEFLQVVAENRGLSQEELADRLVPTLGLDDPQALSFDFGPRQFTVRFDENLNPVIFDQQNVRQKSVPRLRADDDQLKAPEALARLKGLKKDATQVSKNLLPRLETALRTTRRWSLADFHSLFVNHPFTRLVTQRLIWGVYPANEPRCLLKAFRVAAEGEFCNAQDEPIDLPADALIGIAHPLEMTAEMRSEFAQLFADYEIMPPFRQLSRRTVLLTPDESTSNSLTRWEGKSATVGQLMGMRYKGWESGYEDAFVYNLGEYRLVLKFSPGFNHYNVDSKALMSFRSLRVYRDNKSVTFAELDVFDLSEALSAPDVIFH
total protein half-life in vivo [11]: 6.38 h

MFEITGINVSGALKAVVMATGFENPLSSVNEIETKLSALLGSETTGEILFDLLCANGPEWNRFVTLEMKYGRIMLDTAKIIDEQDVPTHILSKLTFTLRNHPEYLEASVLSPDDVRQVLSMDF
total protein half-life in vivo [11]: 5.32 ± 0.4 h | total protein half-life in vivo [4]: 2.73 h | total protein half-life in vivo [5]: 5.11 h

MLKREMNIADYDAELWQAMEQEKVRQEEHIELIASENYTSPRVMQAQGSQLTNKYAEGYPGKRYYGGCEYVDIVEQLAIDRAKELFGADYANVQPHSGSQANFAVYTALLEPGDTVLGMNLAHGGHLTHGSPVNFSGKLYNIVPYGIDATGHIDYADLEKQAKEHKPKMIIGGFSAYSGVVDWAKMREIADSIGAYLFVDMAHVAGLVAAGVYPNPVPHAHVVTTTTHKTLAGPRGGLILAKGGSEELYKKLNSAVFPGGQGGPLMHVIAGKAVALKEAMEPEFKTYQQQVAKNAKAMVEVFLERGYKVVSGGTDNHLFLVDLVDKNLTGKEADAALGRANITVNKNSVPNDPKSPFVTSGIRVGTPAITRRGFKEAEAKELAGWMCDVLDSINDEAVIERIKGKVLDICARYPVYA [P0A825]
total protein half-life in vivo [11]: 4.68 ± 1 h | total protein half-life in vivo [1]: 3.83 ± 0.091 h | total protein half-life in vivo [2]: 3.87 ± 0.15 h | total protein half-life in vivo [12]: 4.35 ± 0.27 h | total protein half-life in vivo [3]: 3.8 ± 0.26 h | total protein half-life in vivo [4]: 3.22 ± 0.18 h | total protein half-life in vivo [5]: 5.51 ± 0.18 h | total protein half-life in vivo [6]: 10.7 ± 2.1 h | total protein half-life in vivo [7]: 3.814 ± 0.011 h | total protein half-life in vivo [8]: 5.98 ± 0.077 h | total protein half-life in vivo [9]: 5.73 ± 0.5 h | total protein half-life in vivo [10]: 11.3 ± 0.74 h

MSGFFQRLFGKDNKPAIARGPLGLHLNSGFTLDTLAFRLLEDELLIALPGEEFTVAAVSHIDLGGGSQIFRYYTSGDEFLQINTTGGEDIDDIDDIKLFVYEESYGISKESHWREAINAKAMGAMTLNWQEKRWQRFFNSEEPGNIEPVYMLEKVENQNHAKWEVHNFTMGYQRQVTEDTYEYLLLNGEESFNDLGEPEWLFSRALGVDIPLTSLHIIG
total protein half-life in vivo [11]: 4.45 h | total protein half-life in vivo [2]: 6.47 ± 1 h | total protein half-life in vivo [12]: > 8 h | total protein half-life in vivo [4]: 3.22 h | total protein half-life in vivo [6]: 12.2 h | total protein half-life in vivo [7]: 5.26 h | total protein half-life in vivo [9]: 6.38 h

MAKHLFTSESVSEGHPDKIADQISDAVLDAILEQDPKARVACETYVKTGMVLVGGEITTSAWVDIEEITRNTVREIGYVHSDMGFDANSCAVLSAIGKQSPDINQGVDRADPLEQGAGDQGLMFGYATNETDVLMPAPITYAHRLVQRQAEVRKNGTLPWLRPDAKSQVTFQYDDGKIVGIDAVVLSTQHSEEIDQKSLQEAVMEEIIKPILPAEWLTSATKFFINPTGRFVIGGPMGDCGLTGRKIIVDTYGGMARHGGGAFSGKDPSKVDRSAAYAARYVAKNIVAAGLADRCEIQVSYAIGVAEPTSIMVETFGTEKVPSEQLTLLVREFFDLRPYGLIQMLDLLHPIYKETAAYGHFGREHFPWEKTDKAQLLRDAAGLK [P0A817]
total protein half-life in vivo [11]: 2.78 ± 0.62 h | total protein half-life in vivo [1]: 2.16 ± 0.45 h | total protein half-life in vivo [2]: 2.01 ± 0.14 h | total protein half-life in vivo [12]: 2.41 ± 0.18 h | total protein half-life in vivo [3]: 2.15 ± 0.17 h | total protein half-life in vivo [4]: 2.97 ± 0.16 h | total protein half-life in vivo [5]: 4.63 ± 0.68 h | total protein half-life in vivo [6]: 6.86 ± 0.4 h | total protein half-life in vivo [7]: 2.1 ± 0.1 h | total protein half-life in vivo [8]: 2.72 ± 0.053 h | total protein half-life in vivo [9]: 5.17 ± 0.096 h | total protein half-life in vivo [10]: 9.5 ± 0.32 h

MRSPICHLFSAINSSPFKIAPEKEQDLKTIVDDKKIIISVVSEPGFNIRVRKNESNNSHEIVLTVASLEYIWAFSNFFWVFTQEYSKSQKNNDEHFDLTGKNRLKKSDELLKWARKNLQTTGCESWPKKCPKPEAYLQGSEDSQVASEIFLCAIAWILHHEISHVVLQHPLVTTAFSTQEEREADSHATKWILGNLYESAPELKKRALGIATAVLCIQSLEVENYFCLQNTHPAAYERIYSNISCYPVGNEELIEALCTVMLQYLFHGKNINVNLDGESFSSILGDLLCDISRLTSN
total protein half-life in vivo [11]: 4.49 ± 0.37 h | total protein half-life in vivo [3]: 1.26 h
